According to patent US20230095569A1:

B1: Ab01 (antibody, V domains shown)
VH: DVQLQESGPGLVKPSQSLSLTCSVTGYSITSGYYWNWIRQFPGNKLEWMGYITYDGSNNYNPSLKNRISITRDTSKNQFFLKLNSVTTEDAATYFCARDPNYYGTTLPAWFVYWGQGTLVTVSA
VL: DIVVTQSHKFMSTSVGDRVSITCKASQDVGTAVAWYQQKPGQSPKLLIYWASTRHTGVPDRFTGSGSGTDFTLTISNVQSEDLTDYFCQQYSSYVTFGAGTKLELK
B2: Ab05 (antibody, V domains shown)
VH: DVKLVESGEDLVKPGGSLKLSCAASGFTFSNYAMSWVRQTPEKRLEWVAYVSSGGDYIYYADTVKGRFIISRDNARNTLYLQMNSLRSEDTAMYYCARVYFGNSLDYWGQGTTLTVSS
VL: DIVMTQSPSSLTVTAGEKVTLSCKSSQSLLNGGNQKNYLTWYQQRPGQPPKLLIYWASTRESGVPDRFTGSGSGTDFTLIISSVQAEDLAVYYCQNDYYYPWTFGGGTKLEIK
B3: Ab06 (antibody, V domains shown)
VH: EVQLVASGGGLVKPGGSLKLSCAASGITFRSYAMSWVRQTPEKRLEWVATITDGGSYIFYPDNVKGRFTISGDHAKNNLYLQMSHLKSEDTALYFCVRLYYGNSFAYWGQGTLVTVSA
VL: DIVMTQSPSSLTVTAGEKVTLNCKSSQSLFNSGNQKNYLTWYQQKPGQPPKLLIYWASTRESGVPDRFTGSGSGTDFTLTFSSVQAEDLAVYYCQNAYIYPFTFGSGTKLEIK
B4: Ab07 (antibody, V domains shown)
VH: EVQLQQSGPELVKPGASVKISCKASGYSFTDYFMNWVKQSHGKGLEWIGRINPYNGDTFYNQKFKGKATLTVDKSSSTAHMELLSLTSEDFAVYYCALYDGYWGAFVYWGQGTLVTVSA
VL: DIQMTQSPASLSVFVGETVTITCRASENIYSNLAWYQQKQGKSPQLLVYAATNLADGVPSRFSGSGSGTQYSLKINSLQSEDFGSYYCQHFWGTPLTFGAGTKLELK
B5: Ab35 (antibody, V domains shown)
VH: DVFLQESGPGLVKPSQSLSLTCTVTGYSITSDYAWNWIRQFPGNKLEWVTYIGYSGTTSYNPSLKSRISITRDTSKNQFFLQLNSVSTEDTATYYCVRRGSYYGSYWFFDVWGAGTTVTVSS
VL: QVVLSQSPAILSASPGEKVTMTCRASSSVSYMHWYQQKPGSSPKPWIYATSNLASGVPPHFSGSGSGTSYSLTISRVEAEDAATYYCQQWTSNPPTFGGGTKLEIK
B6: Ab17 (antibody, V domains shown)
VH: QVQLKESGPGLVAPSQSLSITCTVSGFSLTSYAISWVRQPPGKGLEWLGEIWTGGGTNYNSALKSRLSISKDNSKSQVFLKMNSLQTDDTARYYCGRLSYGNSLDYWGQGTTLTVSS
VL: DIVMTQSPSSLTVTAGEKVTMSCKSSQSLLNSGNQKNYLTWYQQKPGQPPKLLIYWASTRESGVPDRFTGSGSGTDFTLTVSSVQAEDLAVYYCQNNFIYPLTFGPGTKLELK
B7: Ab12 (antibody, V domains shown)
VH: EVMLVESGGGLVKPGGSLKLSCAASGFTFSSYTMSWVRQTPEKRLEWVATIIGGYGNTYYADSVKGRFTISRDSAKNTLYLQMLSLRSEDTALYYCTRLGQTQRNAMDYWGQGTSVTVSS
VL: DILMTQSPSSLSVSAGEKVTMSCKSSQSLLNSGNQRNYLAWYQQKPGQPPKLLIYGASTRESGVPDRFTGSGSGTDFTLTISSVQAEDLAVYYCQNDYYYPLTFGAGTKLELK
B8: Ab16 (antibody, V domains shown)
VH: EVMLVESGGGLVKPGGSLKLSCAASGFTFNSYTMSWVRQTPEKRLEWVATITVIGGNTYYLDSVKGRFTISIDNGKNTLYLQMSSLRSEDTALYYCARMGQTQRNAMDYWGQGTSVTVSS
VL: DIVMTQSPSSLSVSAGQKVTMRCKSSQSLLNSGNQKNYLAWYQQKLGQPPKLLIYGASTRESGVPDRFSGSGSGTDFTLTITSVQAEDLAVYYCQNDYSFPLTFGAGTKLELK
B9: Ab15 (antibody, V domains shown)
VH: EVMLVESGGDLVKPGGSLKLSCAASGFTFSTYTMSWVRQTPEKRLEWVATIVGGGGYTYYLDSVKGRFTISRDNAKNTLYLQMISLRSEDTALYYCARMGLTQRNALDYWGQGTSITVSS
VL: DIVMTQSPSSLSVSEGEKVTLNCKSSQSLFNSGNQKNYLAWYQQKPGQPPKLLIYGASTRESGVPDRFTGSGFGTDFTLTISSVQAEDLAVYYCQNDHTYPLTFGAGAKLELK
B10: Ab13 (antibody, V domains shown)
VH: EVRLVESGGGLVKPGGSLKLSCAGSGFTFSSYTMSWVRQTPEKRLEWVATITIGVNIYYLDSVKGRFTISRDNAKNTLYLQMNSLRSEDTALYYCTRLGQTQRNAMDYWGQGTSVTVSS
VL: DIVMTQSPTSLSVSAGEKVTMTCKSSQSLLNSGNQKNYLAWYQEKPGQPPKLLIYGASTRESGVPDRFTGSGSGTDFTLTISSVQAEDLAVYYCQNNHFYPLTFGAGTKLELK
B11: Ab02 (antibody, V domains shown)
VH: QVQLKESGPGLVAPSQSLSITCTVSGFSLTSYAINWVRQPPGKGLEWLGVIWTGGGTNYNSALKSRLSINKDNSKSQVFLKMNSLQTDDTARYYCARFYDGYYSWFAYWGQGTLVTVSA
VL: DIVMTQSHKFMSTSVGDRVSITCKASQDVGTAVTWYQQKPGQSPKLLIYWASTRHTGVPDRFTGSGSGTDFTLTISNVQSEDLADYFCQQYSSYPFTFGSGTKLEIK
B12: Ab04 (antibody, V domains shown)
VH: EVQLQQSGPELVKPGASVKMSCMASGYTFTDYNIHWVKRSHGSRLEWIGYISPISGGAGYNQKFMDKATLTVDKSSNTAYMELRSLTSEDSAVYYCTRGDYWGQGTTLTVSS
VL: DIVMTQSPSSLAVTVGEKVTMSCKSSQSLLNSGNQKNYLTWYQQKPGQPPKLLIYWASTRKSGVPDRFTGSGSGTDFTLTISSVQAEDLGIYYCLNDYGFPLTFGAGSKLELK
B13: Ab37 (antibody, V domains shown)
VH: EVKLEESGGGLVQPGGSMKLSCVASGFTFSNYWMNWVRQYPEQGLEWVAQIRLNSDNYATHYAESVKGRFTISRDDSRSTVYLQMNNLRAEDTGIYYCTGGGEYWGQGTTLTVSS
VL: DIVMTQSQKFMSTTIGDRVSITCKASQNVDTAVAWYQQKPGQSPKLLIYSASTRYTGVPDRFTGSGSGTDFTLTISNMQSEDLADYFCQQYISYQLTFGAGTKLELK
B14: Ab09 (antibody, V domains shown)
VH: EVQLQQSGPELVKPGTSVKMSCKASGYTFTDYNMHWVKLSHGKSLEWIGYINPNNGGTIYNQRFKGKATLTVNKSSRTAYMDLRSLTSEDSAVYYCARQGYYGNSMDYWGQGNSVTVSS
VL: DIVMTQSPSSLTVTPGERVTMSCKSSQSLLNGGNQRNYLTWYQQKPGQPPKLLIYWASTRESGVPDRFAGSGSGTDFTLTISRVQAEDLSFYYCQNSYFYPFTFGSGTKLDLR
B15: Ab11 (antibody, V domains shown)
VH: EVMLVESGGDLVKPGGSLKLSCAASGFTFSRYTMSWVRQTPEKRLEWVATVSVGSGNTYYLDSVKGRFTISRDNAKNTLFLQMNSLRSEDTALYYCTRLGQTQRNAVDYWGQGTSVTVSS
VL: DIVMTQSPSFLSVSAGEKVTMSCKSSQSLFNGGNQKNYLAWYQQKPGQPPKLLIYGASTRDSGVPDRFTGSGSGTDFTLTISNVQAEDLAIYFCQNDHSFPLTFGAGTKLELK

Key:
[1] = biological target: mouse Claudine18.2 (mouse) (UniProt P56857); assay: FACS on CHOK1-m18.2 cells
[2] = biological target: Rhesus monkey Claudine18.2 (Rhesus monkey) (UniProt F6YQY3); assay: FACS on CHOK1-rh18.2 cells

Binder	FACS MFI [1]	FACS MFI [2]
B1	12700	8380
B2	12500	9850
B3	13200	14000
B4	15000	9040
B5	9610	8340
B6	13300	6680
B7	13100	7610
B8	14300	6660
B9	12200	6320
B10	12500	5630
B11	2040	1400
B12	8440	2130
B13	18600	16700
B14	12600	8100
B15	11200	7800
